# B1: gD1-275v5-55: gD1-275 with glycochains at SC-A, SC-F, linked to T cell epitope peptide DP5 (protein)
# chain: KYALADPSLKMADPNRFRGKNLPVLDQLTDPPGVKRVYHIQPSLEDPFQNASIPITVYYAVLERACRSVLLHAPSEAPQIVRGASDEARKHTYNLTIAWYRMGDNCAIPITVMEYTECPYNKSLGVCPIRTQPRWSYYDSFSAVSEDNLGFLMHAPAFETAGTYLRLVKINDWTEITQFILEHRANASCKYALPLRIPPAACLTSKAYQQGVTVDSIGMLPRFIPENQRTVALYSLKIAGWHGPKPPYTSTLLPPELSDTTNATQPELVPEDPEDGPGPGIAFWVRRRAQMAPKPLRIAFWVRRRAQMAPKPLRHHHHHH
# modifications: left off: small tags and cut ends
# B2: gD1-315v5: gD1-315 with glycochains at R186 (SC-A) and P50 (SC-F) (protein)
# chain: KYALADPSLKMADPNRFRGKNLPVLDQLTDPPGVKRVYHIQPSLEDPFQNASIPITVYYAVLERACRSVLLHAPSEAPQIVRGASDEARKHTYNLTIAWYRMGDNCAIPITVMEYTECPYNKSLGVCPIRTQPRWSYYDSFSAVSEDNLGFLMHAPAFETAGTYLRLVKINDWTEITQFILEHRANASCKYALPLRIPPAACLTSKAYQQGVTVDSIGMLPRFIPENQRTVALYSLKIAGWHGPKPPYTSTLLPPELSDTTNATQPELVPEDPEDSALLEDPAGTVSSQIPPNWHIPSIQDVAPHHAPAAPSNPGHHHHHH
# Experiments:
# [1] = system: various anti-gD2 antibodies; experiment: Reactivity of gD variants with anti-gD2 antibodies (competitive ELISA); assay type: binding, human; conditions: for Reactivity with anti-gD2 antibody 1 / Reactivity with anti-gD2 antibody 5 / Reactivity with anti-gD2 antibody 13 / Reactivity with anti-gD2 antibody 72 / Reactivity with anti-gD2 antibody 75 / Reactivity with anti-gD2 antibody 78 / Reactivity with anti-gD2 antibody 82: immobilized gD variant
# Description: Each anti-gD2 monoclonal antibody and each gD variant were expressed using an Expi293 expression system.
# HSV-2 MS strain = experiment: Mouse infection-prevention test of modified gD (genital herpes infection model); assay type: in vivo, BALB/c mice; parameters: key to Determination (vs gD1-315) / Determination# (vs gD1-315): ++: minimum effective dose based on the Significant difference test in three-fold common ratio relative to gD1-315(WT) of two or more doses stronger; +: those of one dose stronger; ±: those of an equivalent value
# Protocol: Immunogenicity test of the modified gD antigen was performed using the wild-type gD antigen gD1-315 (WT) as a positive control and saline as a negative control. A predetermined amount of antigen was dissolved in saline for injection (saline) with MPLA (10 μg/mouse) and CpG (1 μg/mouse) and immunized to mice at a volume of 200 μL/mouse. BALB/c mice (5 weeks old, female) were used for the study and immunized subcutaneously in back at 2-week intervals for a total of 3 times (N=4 cases per group). Two weeks after the final immunization (third dose), blood was collected and serum was prepared for each individual. The prepared serum was serially diluted and assessed for neutralizing antibody-inducing activity against HSV-2 (50% plaque number-reducing activity).
# An infection-prevention test in the preventive administration of modified gD antigen was performed using a mouse genital herpes infection model. Similar to the mouse immunogenicity test described above, mice were immunized with the number of N=10 cases per group. Depo-Provera was inoculated subcutaneously at 2 mg/mouse 6 days prior to viral inoculation to improve the multiplicity of infection upon viral inoculation 2 weeks after final immunization (third dose). 5×10^5 PFU/20 μL HSV-2 MS strain was inoculated transvaginally under anesthesia and observed for 21 days. Infection prevention ability was evaluated using survival time (survival rate) as index.
# The infection model of the mouse genital herpes infection model was used to evaluate infection prevention ability of various modified gD in preventive administration. The number of animal cases in each group was set to n=10, and wild-type gD (gD1-315) was used as a positive control and saline was used as a negative control. The experiments were performed a total of four times (experiments 1-4) and four doses of 0.1 μg/mouse/time, 0.03 μg/mouse/time, 0.01 μg/mouse/time and 0.003 μg/mouse/time were set for all of the positive control, negative control, and subject modified gD antigen. Depo-Provera was inoculated subcutaneously at 2 mg/mouse 6 days prior to viral inoculation to improve the multiplicity of infection upon viral inoculation 2 weeks after final immunization (third dose). 5×10^5 PFU/20 HSV-2 MS strain was inoculated transvaginally under anesthesia and observed for 21 days. Infection prevention ability was evaluated using survival time (survival rate) as index. Mean values of those were plotted in the graph. A Significant difference test for the negative control group was performed by the Kaplan-Meier method, and those with a minimum effective dose based on the Significant difference test in three-fold common ratio relative to wild type gD of two or more doses stronger were determined to be “++”, those of one dose stronger were determined to be “+”, and those of an equivalent value were determined to be “±”.
# HVEM = molecular target: T1, HVEM (Homo sapiens, UniProt Q92956); experiment: Reactivity of HVEM with gD variants (competitive ELISA); assay type: binding; conditions: compared to the original gD1-315; FIG. 14
# T1 sequence (Q92956 39-202): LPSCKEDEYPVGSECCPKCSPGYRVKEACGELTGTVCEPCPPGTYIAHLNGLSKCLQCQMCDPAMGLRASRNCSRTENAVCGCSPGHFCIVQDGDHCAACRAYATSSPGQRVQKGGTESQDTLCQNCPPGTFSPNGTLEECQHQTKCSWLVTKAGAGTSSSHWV
# Protocol: From the above discussion, it can be strongly inferred that each variant takes the structure in which FR1 is bound to the receptor binding region. The reactivity of HVEM with each variant was then measured by competitive ELISA.
# HVEM can bind gD for the first time when FR1 binds to the receptor binding region and takes a characteristic hairpin structure. […] FR3-deficient gD1-275v5-55 promoted FR1 binding and further HVEM binding over other gD1-315-based variants in which FR3 was present.
# [2] = Properties of produced gD variants (aggregates); assay type: physicochemical; conditions: expressed and purified variant
# Description: Four gD1-275-based variants were produced. Since these were FR3-deficient variants, V231W mutations affecting FR3 were not investigated. […] Meanwhile, eight gD1-315-based variants were produced, and none of the variants were less than the original gD1-315 in both properties and expression level.
# [3] = Experiment 1, 0.003 μg/head/time
# [4] = Experiment 1, 0.01 μg/head/time
# [5] = Experiment 1, 0.03 μg/head/time
# [6] = Experiment 2, 0.003 μg/head/time
# [7] = Experiment 2, 0.01 μg/head/time
# [8] = Experiment 2, 0.03 μg/head/time
# [9] = Experiment 3, 0.003 μg/head/time
# [10] = Experiment 3, 0.01 μg/head/time
# [11] = Experiment 3, 0.03 μg/head/time
# [12] = Experiment 4, 0.003 μg/head/time
# [13] = Experiment 4, 0.01 μg/head/time
# [14] = Experiment 4, 0.03 μg/head/time
# [15] = Experiment 1, minimum effective dose relative to gD1-315(WT)
Molecule,Reactivity with anti-gD2 antibody 1 [1],Reactivity with anti-gD2 antibody 5 [1],Reactivity with anti-gD2 antibody 13 [1],Reactivity with anti-gD2 antibody 72 [1],Reactivity with anti-gD2 antibody 75 [1],Reactivity with anti-gD2 antibody 78 [1],Reactivity with anti-gD2 antibody 82 [1],Mean survival time (HSV-2 MS strain; [3]) [days],Significant difference test (vs saline) (HSV-2 MS strain; [3]),Mean survival time (HSV-2 MS strain; [4]) [days],Significant difference test (vs saline) (HSV-2 MS strain; [4]),Mean survival time (HSV-2 MS strain; [5]) [days],Significant difference test (vs saline) (HSV-2 MS strain; [5]),"Mean survival time (HSV-2 MS strain; Experiment 1, 0.1 μg/head/time) [days]","Significant difference test (vs saline) (HSV-2 MS strain; Experiment 1, 0.1 μg/head/time)",Mean survival time (HSV-2 MS strain; [12]) [days],Significant difference test (vs saline) (HSV-2 MS strain; [12]),Mean survival time (HSV-2 MS strain; [13]) [days],Significant difference test (vs saline) (HSV-2 MS strain; [13]),Mean survival time (HSV-2 MS strain; [14]) [days],further results
"gD1-315: wild-type soluble gD ectodomain 1-315 of HSV-2 333 strain, SEQ ID NO: 1; positive control [reference compound]",+ ((+): 70% or more),+ ((+): 70% or more),+ ((+): 70% or more),+ ((+): 70% or more),+ ((+): 70% or more),+ ((+): 70% or more),+ ((+): 70% or more),6.5,N.S.,7,N.S.,>21,*** (*** p < 0.001),>21,*** (*** p < 0.001),8,N.S.,7.5,N.S.,>16.5,"Mean survival time (HSV-2 MS strain; [6]): 7.5 days; Significant difference test (vs saline) (HSV-2 MS strain; [6]): N.S.; Mean survival time (HSV-2 MS strain; [7]): 7.5 days; Significant difference test (vs saline) (HSV-2 MS strain; [7]): N.S.; Mean survival time (HSV-2 MS strain; [8]): >14.5 days; Significant difference test (vs saline) (HSV-2 MS strain; [8]): N.S.; Mean survival time (HSV-2 MS strain; Experiment 2, 0.1 μg/head/time): >22 days; Significant difference test (vs saline) (HSV-2 MS strain; Experiment 2, 0.1 μg/head/time): *** (*** p < 0.001); Mean survival time (HSV-2 MS strain; [9]): 6 days; Significant difference test (vs saline) (HSV-2 MS strain; [9]): N.S.; Mean survival time (HSV-2 MS strain; [10]): 8 days; Significant difference test (vs saline) (HSV-2 MS strain; [10]): * (* 0.01 = < p < 0.05); Mean survival time (HSV-2 MS strain; [11]): >21 days; Significant difference test (vs saline) (HSV-2 MS strain; [11]): *** (*** p < 0.001); Mean survival time (HSV-2 MS strain; Experiment 3, 0.1 μg/head/time): >21 days; Significant difference test (vs saline) (HSV-2 MS strain; Experiment 3, 0.1 μg/head/time): *** (*** p < 0.001); Significant difference test (vs saline) (HSV-2 MS strain; [14]): N.S.; Mean survival time (HSV-2 MS strain; Experiment 4, 0.1 μg/head/time): >21 days; Significant difference test (vs saline) (HSV-2 MS strain; Experiment 4, 0.1 μg/head/time): *** (*** p < 0.001); Reactivity with HVEM (HVEM): little reaction"
B1,− ((−): less than 30%),− ((−): less than 30%),− ((−): less than 30%),− ((−): less than 30%),− ((−): less than 30%),− ((−): less than 30%),+ ((+): 70% or more),13,*** (*** p < 0.001),11,*** (*** p < 0.001),>21,*** (*** p < 0.001),>21,*** (*** p < 0.001),8,N.S.,15.5,N.S.,>21,"Determination (vs gD1-315) (HSV-2 MS strain; [15]): ++; Significant difference test (vs saline) (HSV-2 MS strain; [14]): ** (** 0.001 = < p < 0.01); Mean survival time (HSV-2 MS strain; Experiment 4, 0.1 μg/head/time): >21 days; Significant difference test (vs saline) (HSV-2 MS strain; Experiment 4, 0.1 μg/head/time): *** (*** p < 0.001); Determination# (vs gD1-315) (HSV-2 MS strain; Experiment 4, minimum effective dose relative to gD1-315(WT)): +; Properties of the variant (aggregates) [2]: well properties"
B2,+ ((+): 70% or more),− ((−): less than 30%),+ ((+): 70% or more),± ((±): 30% or more and less than 70%),− ((−): less than 30%),− ((−): less than 30%),+ ((+): 70% or more),6.5,N.S.,>21,*** (*** p < 0.001),>21,*** (*** p < 0.001),>21,*** (*** p < 0.001),,,,,,Relative reactivity with antibody No. 82 (gD1-315 wild-type set to 1) ([1]; FIG. 13): substantially similar reactivity; Determination (vs gD1-315) (HSV-2 MS strain; [15]): +; Reactivity with HVEM (HVEM): little reaction
